Measurements published in the supplement of paper PMC7877785.
± gives the uncertainty stated by the source.

Test: self-splicing fitness, log relative to wild type (ln ratio); higher = more splicing; Tetrahymena group I intron in knt gene, E. coli kanamycin selection, DiMSum; sequences stand for … in CUCUCU…GGAGGGAAAAGUUAUCAGGCAUGCACCUGGUAGCUAGUCUUUAAACCAAUAGAUUGCAUCGGUUUAAAAGGCAAGACCGUCAAAUUGCGGGAAAGGGGUCAACAGCCGUUCAGUACCAAGUCUCAGGGGAAACUUUGAGAUGGCCUUGCAAAGGGUAUGGUAAUAAGCUGACGGACAUGGUCCUAACCACGCAGCCAAGUCCUAAGUCAACAGAUCUUCUGUUGAUAUGGAUGCAGUUCACAGACUAAAUGUCGGUCGGGGAAGAUGUAUUCUUCUCAUAAGAUAUAGUCGGACCUCUCCUUAAUGGGAGCUAGCGGAUGAAGUGAUGCAACACUGGAGCCGCUGGGAACUAAUUUGUAUGCGAAAGUAUAUUGAUUAGUUUUGGAGUACUCGUGGUCG
How it was run: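 Pooled colonies went to amplicon sequencing on an Illumina HiSeq 2500 after six replicate transformations. The plates were LB agar with 100 μg/mL carbenicillin, 50 μM IPTG and 0.2% rhamnose, with or without 25 μg/mL kanamycin, incubated overnight at 37°C or 30°C. The E. coli BL21(DE3) library had all eight P1ex-region intron nucleotides randomised, the intron placed in the knt kanamycin-resistance gene on pET-22b(+). DiMSum fitness is the error-weighted combination of replicate fold changes, kanamycin against none, normalised to wild type.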

| Sequence | self-splicing fitness (ln) (30 °C) | self-splicing fitness (ln) (37 °C) |
| --- | --- | --- |
| CGAUAGCAAUAUUACGAAAA | -3.85 ± 0.48 | -2.7 ± 0.3 |
| GUGCAGCAAUAUUACGGGCU | -1.95 ± 0.15 | -1.2 ± 0.12 |
| AUUAAGCAAUAUUACGCAGC | -3.06 ± 0.22 | -2.72 ± 0.39 |
| UCUAAGCAAUAUUACGCCAC | -2.44 ± 0.36 | -3.11 ± 0.35 |
| GUCUAGCAAUAUUACGGCUA |  | -2.64 ± 0.33 |
| UGCGAGCAAUAUUACGCAAA | -3.58 ± 0.28 | -2.04 ± 0.17 |
| AACAAGCAAUAUUACGUGCC | -0.971 ± 0.086 | -0.503 ± 0.12 |
| CAACAGCAAUAUUACGACCU | -1.18 ± 0.12 | -0.29 ± 0.12 |
| CUGGAGCAAUAUUACGUUUU |  | -3.48 ± 0.42 |
| CGCAAGCAAUAUUACGGAUC | -2 ± 0.19 | -2.21 ± 0.18 |
| GAAGAGCAAUAUUACGGGCA | -1.96 ± 0.16 | -1.23 ± 0.14 |
| AGCCAGCAAUAUUACGAUGG | -4.33 ± 0.26 | -2.28 ± 0.19 |
| UGUCAGCAAUAUUACGUGUU | -3.51 ± 0.15 | -1.23 ± 0.11 |
| GACAAGCAAUAUUACGAUAG | -2.76 ± 0.22 | -0.828 ± 0.12 |
| CGAGAGCAAUAUUACGGUCG | -1.42 ± 0.34 | -2.28 ± 0.24 |
| CAAGAGCAAUAUUACGCAAG | -3.06 ± 0.17 | -1.99 ± 0.17 |
| UGGUAGCAAUAUUACGGGAU | -3.14 ± 0.36 | -2.32 ± 0.28 |
| AAGAAGCAAUAUUACGUGUG | -2.3 ± 0.09 | -0.663 ± 0.081 |
| AGUGAGCAAUAUUACGGAAC | -2.5 ± 0.43 |  |
| UCAUAGCAAUAUUACGAAGG | -2.69 ± 0.14 | -1.31 ± 0.11 |
| CCACAGCAAUAUUACGGGGA | -3.12 ± 0.19 | -2.51 ± 0.17 |
| AAGGAGCAAUAUUACGGCCU | -1.62 ± 0.12 | -0.486 ± 0.12 |
| AAUCAGCAAUAUUACGACAC | -0.56 ± 0.12 | -1.46 ± 0.15 |
| GUGUAGCAAUAUUACGCACA |  | -1.5 ± 0.2 |
| AGGAAGCAAUAUUACGUGAA | -2.53 ± 0.35 | -1.97 ± 0.24 |

| Sequence | self-splicing fitness (ln) (30 °C) | self-splicing fitness (ln) (37 °C) |
| --- | --- | --- |
| AACAAGCAAUAUUACGCAUC | -2.41 ± 0.15 | -1.77 ± 0.18 |
| UCUCAGCAAUAUUACGAUUC | -2.66 ± 0.28 | -1.94 ± 0.27 |
| AUUUAGCAAUAUUACGACCC | -1.16 ± 0.28 | -0.0521 ± 0.3 |
| ACUGAGCAAUAUUACGUGCU | -3.84 ± 0.41 | -2.28 ± 0.27 |
| AUGGAGCAAUAUUACGGUCU | -1.54 ± 0.14 | -2.04 ± 0.21 |
| ACCUAGCAAUAUUACGGAGC | -2.67 ± 0.12 | -1.28 ± 0.14 |
| CGUGAGCAAUAUUACGCCGG | -2.32 ± 0.24 | -2.58 ± 0.39 |
| UACCAGCAAUAUUACGCUCU | -0.618 ± 0.072 | 0.00956 ± 0.082 |
| GAUAAGCAAUAUUACGAAAC | -2.38 ± 0.2 | -0.746 ± 0.19 |
| GUCCAGCAAUAUUACGACCG | -2.21 ± 0.5 |  |
| AUCGAGCAAUAUUACGAACA | -2.91 ± 0.24 | -1.27 ± 0.2 |
| UCAGAGCAAUAUUACGACGC |  | -1.69 ± 0.4 |
| GCGAAGCAAUAUUACGGUGG | -4.24 ± 0.23 | -3.08 ± 0.27 |
| AACAAGCAAUAUUACGGCUU | -1.14 ± 0.081 | -0.539 ± 0.084 |
| GGAGAGCAAUAUUACGUCGG | -4.62 ± 0.39 | -3.75 ± 0.3 |
| AGGAAGCAAUAUUACGUACA | -1.08 ± 0.065 | -0.404 ± 0.088 |
| CAAAAGCAAUAUUACGAAGA | -2.23 ± 0.28 | -1.43 ± 0.17 |
| GUGCAGCAAUAUUACGACAG | -2.83 ± 0.14 | -1.71 ± 0.16 |
| UGACAGCAAUAUUACGCUAA | -1.22 ± 0.086 | -0.325 ± 0.093 |
| AUCAAGCAAUAUUACGUUGC | -3.84 ± 0.18 | -2 ± 0.15 |
| UGCGAGCAAUAUUACGGGCA | -2.84 ± 0.21 | -1.31 ± 0.18 |
| GCCAAGCAAUAUUACGCCUU | -2.83 ± 0.13 | -1.26 ± 0.12 |
| GUGUAGCAAUAUUACGUGAG | -1.23 ± 0.095 | -0.931 ± 0.093 |
| CUUUAGCAAUAUUACGGUCU | -3.25 ± 0.2 | -3.94 ± 0.36 |
| UUGAAGCAAUAUUACGAAAA | -0.641 ± 0.12 | 0.066 ± 0.15 |
